Like-named read-outs stand apart in the source and are kept apart here. One block for each binder: values may come before it.
How the values were obtained:
[1] = target: T1, recombinant human TNFα (human, UniProt P01375 77-233); test: cell-based or functional assay
[2] = target: T1, recombinant human TNFα; test: cell-based or functional assay; remark: listed apart in the source
[3] = target: T1, recombinant human TNFα; test: cell-based or functional assay; remark: listed apart in the source
[4] = target: T1, recombinant human TNFα; test: ELISA on recombinant human TNFα
[5] = target: T1, recombinant human TNFα; test: ELISA dilution series on TNFα after 3 days at 37°C in assay buffer TBSTM (positive control)
[6] = target: T1, recombinant human TNFα; test: ELISA dilution series on TNFα after 3 days at 37°C in human serum (column 'serum')
[7] = target: T1, recombinant human TNFα; test: surface plasmon resonance (BIACore)
[8] = target: T1, recombinant human TNFα; test: ELISA dilution series on TNFα after 3 days at 37°C in pig vitreous body fluid (column 'vitreous body fluid')
[9] = target: T1, recombinant human TNFα; test: cell-based or functional assay; remark: listed apart in the source
[10] = target: T1, recombinant human TNFα; test: ELISA dilution series on TNFα after 3 days at 37°C in pig anterior chamber fluid (column 'anterior chamber fluid')
[11] = target: T1, recombinant human TNFα; test: ELISA dilution series on TNFα after 3 days at 37°C in human urine (column 'urine')
[12] = target: T1, recombinant human TNFα; test: ELISA on recombinant human TNFα; remark: listed apart in the source

T1 sequence (P01375 77-233 limits assumed): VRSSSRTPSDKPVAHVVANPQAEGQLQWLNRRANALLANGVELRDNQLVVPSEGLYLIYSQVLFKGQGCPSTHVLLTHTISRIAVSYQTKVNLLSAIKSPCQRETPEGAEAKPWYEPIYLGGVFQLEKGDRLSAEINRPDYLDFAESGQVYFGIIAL

B1: TB-wt (scFv)
scFv: DIVMTQTPKFLLVSAGDRVTITCTASQSVSNDVVWYQQKPGQSPKMLMYSAFNRYTGVPDRFTGRGYGTDFTFTISSVQAEDLAVYFCQQDYNSPRTFGGGTKLEIKRGGGGSGGGGSGGGGSGGGGSQIQLVQSGPELKKPGETVKISCKASGYTFTHYGMNWVKQAPGKGLKWMGWINTYTGEPTYADDFKEHFAFSLETSASTVFLQINNLKNEDTATYFCARERGDAMDYWGQGTSVTVSS
- IC50, inhibition of human TNFα-induced cytotoxicity in mouse L929 fibroblasts [1]: 0.161 µg/mL

- IC50 in the L929 assay, Fab format relative to scFv format of TB-A [3]: ~2 fold (IC50 Fab / IC50 scFv)
B2: TB-A Fab antibody (Fab, V domains shown)
VH: QVQLVQSGAEVKKPGASVKVSCTASGYTFTHYGMNWVRQAPGKGLEWMGWINTYTGEPTYADKFKDRFTFSLETSASTVYMELTSLTSDDTAVYYCARERGDAMDYWGQGTLVTVSS
VL: DIVMTQSPSSLSASVGDRVTLTCTASQSVSNDVVWYQQRPGKAPKLLIYSAFNRYTGVPSRFSGRGYGTDFTLTISSLQPEDVAVYYCQQDYNSPRTFGQGTKLEVKR
- IC50, inhibition of human TNFα-induced cytotoxicity in mouse L929 fibroblasts [2]: 0.0659 µg/mL

- EC50 (read off the curve) [4]: ~3 nM
- Kd [5]: 3.39 nM
- Kd [6]: 3.62 nM
- Kd [7]: 0.8 nM
- koff [7]: 0.00044 s⁻¹
- kon [7]: 500000 M⁻¹ s⁻¹
- Kd [8]: 3.18 nM
- Relative potency: EC50X/EC50TB-A, KYM-1 cells [9]: 1 ratio EC50X/EC50TB-A
- Relative potency: EC50X/EC50TB-A, L929 cells [9]: 1 ratio EC50X/EC50TB-A
- Kd [10]: 2.97 nM
- Kd [11]: 4.14 nM
B3: TB-A (scFv)
scFv: DIVMTQSPSSLSASVGDRVTLTCTASQSVSNDVVWYQQRPGKAPKLLIYSAFNRYTGVPSRFSGRGYGTDFTLTISSLQPEDVAVYYCQQDYNSPRTFGQGTKLEVKRGGGGSGGGGSGGGGSGGGGSQVQLVQSGAEVKKPGASVKVSCTASGYTFTHYGMNWVRQAPGKGLEWMGWINTYTGEPTYADKFKDRFTFSLETSASTVYMELTSLTSDDTAVYYCARERGDAMDYWGQGTLVTVSS
notes: also called TB-A scFv; TB-A scFv antibody
- IC50, inhibition of human TNFα-induced cytotoxicity in mouse L929 fibroblasts [1]: 0.0144 µg/mL
- IC50, inhibition of human TNFα-induced cytotoxicity in mouse L929 fibroblasts [2]: 0.0297 µg/mL

- binding result [12]: binds
B4: TB-A L_R65S (scFv)
scFv: DIVMTQSPSSLSASVGDRVTLTCTASQSVSNDVVWYQQRPGKAPKLLIYSAFNRYTGVPSRFSGSGYGTDFTLTISSLQPEDVAVYYCQQDYNSPRTFGQGTKLEVKRGGGGSGGGGSGGGGSGGGGSQVQLVQSGAEVKKPGASVKVSCTASGYTFTHYGMNWVRQAPGKGLEWMGWINTYTGEPTYADKFKDRFTFSLETSASTVYMELTSLTSDDTAVYYCARERGDAMDYWGQGTLVTVSS
notes: also called TB-A L65

- EC50 (read off the curve) [4]: ~700 nM
B5: TB-BA (scFv)
scFv (VL of TB-B - (GGGGS)4 linker - VH of TB-A): DIVLTQSPSSLSASVGDRVTLTCTASQSVSNDVVWYQQRPGKAPKRLIYSAFNRYTGVPSRFSGSGSGTEFTLTISSLQPEDVAVYYCQQDYNSPRTFGQGTKLEVKRGGGGSGGGGSGGGGSGGGGSQVQLVQSGAEVKKPGASVKVSCTASGYTFTHYGMNWVRQAPGKGLEWMGWINTYTGEPTYADKFKDRFTFSLETSASTVYMELTSLTSDDTAVYYCARERGDAMDYWGQGTLVTVSS
notes: Domain-shuffled variant: VL domain of TB-B with VH domain of TB-A

- EC50 (read off the curve) [4]: ~3 nM
B6: TB-AB (scFv)
scFv (VL of TB-A - (GGGGS)4 linker - VH of TB-B): DIVMTQSPSSLSASVGDRVTLTCTASQSVSNDVVWYQQRPGKAPKLLIYSAFNRYTGVPSRFSGRGYGTDFTLTISSLQPEDVAVYYCQQDYNSPRTFGQGTKLEVKRGGGGSGGGGSGGGGSGGGGSQVQLVQSGAEVKKPGASVKVSCTASGYSFTHYGMNWVRQAPGQGLEWMGWINTYTGEPTYADKFKDRVTLTRDTSIGTVYMELTSLTSDDTAVYYCARERGDAMDYWGQGTLVTVSS
notes: Domain-shuffled variant: VL domain of TB-A with VH domain of TB-B
